# Reference: the supplement of paper PMC11246515
# ± gives the standard deviation of the averaged measurements.
# Test: total protein half-life in vivo (active degradation + dilution); higher = more stable protein
# [1] = E. coli NCM3722 delta-clpP delta-lon delta-hslV, growth: N-lim chemostat, doubling time 6 h
# [2] = E. coli NCM3722 delta-clpP, growth: N-lim chemostat, doubling time 6 h
# [3] = E. coli NCM3722 delta-hslV, growth: N-lim chemostat, doubling time 6 h
# [4] = E. coli NCM3722 delta-lon, growth: N-lim chemostat, doubling time 6 h
# [5] = E. coli NCM3722 delta-smpB, growth: N-lim chemostat, doubling time 6 h
# [6] = wild type E. coli NCM3722, growth: C-lim chemostat, doubling time 3 h
# [7] = wild type E. coli NCM3722, growth: C-lim chemostat, doubling time 6 h
# [8] = wild type E. coli NCM3722, growth: C-lim chemostat, doubling time 12 h
# [9] = wild type E. coli NCM3722, growth: N-lim chemostat, doubling time 6 h
# [10] = wild type E. coli NCM3722, growth: N-lim chemostat, doubling time 12 h
# [11] = wild type E. coli NCM3722, growth: P-lim chemostat, doubling time 6 h
# [12] = wild type E. coli NCM3722, growth: P-lim chemostat, doubling time 12 h
Sequence,total protein half-life in vivo [1],total protein half-life in vivo [2],total protein half-life in vivo [3],total protein half-life in vivo [4],total protein half-life in vivo [5],total protein half-life in vivo [6],total protein half-life in vivo [7],total protein half-life in vivo [8],total protein half-life in vivo [9],total protein half-life in vivo [10],total protein half-life in vivo [11],total protein half-life in vivo [12]
MASKFQNRLVGTIVLVALGVIVLPGLLDGQKKHYQDEFAAIPLVPKAGDRDEPDMMPAATQALPTQPPEGAAEEVRAGDAAAPSLDPATIAANNTEFEPEPAPVAPPKPKPVEPPKPKVEAPPAPKPEPKPVVEEKAAPTGKAYVVQLGALKNADKVNEIVGKLRGAGYRVYTSPSTPVQGKITRILVGPDASKDKLKGSLGELKQLSGLSGVVMGYTPN,4.2 ± 0.25 h,5.15 ± 2.6 h,3.72 ± 0.18 h,3.63 ± 0.44 h,3.52 ± 0.13 h,2.45 ± 0.036 h,3.46 ± 0.32 h,6.92 ± 0.23 h,3.32 ± 0.14 h,5.77 ± 1.7 h,2.83 ± 0.55 h,5.38 ± 0.026 h
MKIISFVLPCLLVLAGCSTPSQPEAPKPPQIGMANPASVYCQQKGGTLIPVQTAQGVSNNCKLPGGETIDEWALWRRDHPAGEK,–,> 8 h,–,6.51 h,5.85 h,2.68 h,–,15.8 ± 0.2 h,–,14.4 ± 0.2 h,6.22 h,–
MQFEKMITEGSNTASAEIDRVSTLEMCRIINDEDKTVPLAVERVLPDIAAAIDVIHAQVSGGGRLIYLGAGTSGRLGILDASECPPTYGVKPGLVVGLIAGGEYAIQHAVEGAEDSREGGVNDLKNINLTAQDVVVGIAASGRTPYVIAGLEYARQLGCRTVGISCNPGSAVSTTAEFAITPIVGAEVVTGSSRMKAGTAQKLVLNMLSTGLMIKSGKVFGNLMVDVVATNEKLHVRQVNIVKNATGCSAEQAEAALIACERNCKTAIVMVLKNLDAAEAKKRLDQHGGFIRQVLDKE,5.64 ± 0.068 h,4.82 ± 0.37 h,5.96 ± 1.8 h,4.88 ± 0.37 h,4.08 ± 0.35 h,3.04 ± 0.084 h,5.28 ± 0.059 h,8.41 ± 0.19 h,4.37 ± 0.25 h,8.74 ± 0.62 h,5.92 ± 1.1 h,9.65 ± 0.26 h
MKFQAIVLASFLVMPYALADDQGGLKQDAAPPPPHAIEDGYRGTDDAKKMTVDFAKTMHDGASVSLRGNLISHKGEDRYVFRDKSGEINVVIPAAVFDGREVQPDQMINISGSLDKKSAPAVVRVTHLQK,3.34 ± 0.2 h,3.77 ± 0.45 h,5.37 ± 0.2 h,–,–,3.02 ± 0.51 h,5.22 ± 0.22 h,6.52 ± 1.8 h,5.18 ± 0.37 h,8.94 ± 0.26 h,4.33 ± 0.9 h,7.82 ± 2.9 h
MSEIVVSKFGGTSVADFDAMNRSADIVLSDANVRLVVLSASAGITNLLVALAEGLEPGERFEKLDAIRNIQFAILERLRYPNVIREEIERLLENITVLAEAAALATSPALTDELVSHGELMSTLLFVEILRERDVQAQWFDVRKVMRTNDRFGRAEPDIAALAELAALQLLPRLNEGLVITQGFIGSENKGRTTTLGRGGSDYTAALLAEALHASRVDIWTDVPGIYTTDPRVVSAAKRIDEIAFAEAAEMATFGAKVLHPATLLPAVRSDIPVFVGSSKDPRAGGTLVCNKTENPPLFRALALRRNQTLLTLHSLNMLHSRGFLAEVFGILARHNISVDLITTSEVSVALTLDTTGSTSTGDTLLTQSLLMELSALCRVEVEEGLALVALIGNDLSKACGVGKEVFGVLEPFNIRMICYGASSHNLCFLVPGEDAEQVVQKLHSNLFE,4.06 ± 0.69 h,2.98 ± 0.29 h,2.67 ± 0.073 h,3.15 ± 0.3 h,2.54 ± 0.31 h,3.142 ± 0.0098 h,4.67 ± 0.34 h,8.44 ± 2.4 h,2.9 ± 0.23 h,4.25 ± 0.55 h,5.46 ± 0.4 h,10.1 ± 1.1 h
MRKYRLSEEQRAFSYQEDGTKKNVLLRQIIAISDFNDVIAGTAGGWIDRETVLAQEGNCWIYDQNAIAFGGAVISGNTRITGTSVLWGEVYATDNVWIDNSEISQGAYISDSVTIHDSLVYGQCRIFGHALIDQHSMIVAAQGLTPDHQLLLQIYDRARVSASRIVHQAQIYGDAVVRYAFIEHRAEVFDFASIEGNEENNVWLCDCAKVYGHAQVKAGIEEDAIPTIHYSSQVAEYAIVEGNCVLKHHVLVGGNAVVRGGPILLDEHVVIQGESRITGAVIIENHVELTDHAVVEAFDGDTVHVRGPKVINGEERITRTPLAGLL,–,4.51 h,3.02 h,–,2.62 ± 0.092 h,2.39 h,–,6.16 h,3.27 h,5.74 h,–,8.26 ± 1 h
MKTFFRTVLFGSLMAVCANSYALSESEAEDMADLTAVFVFLKNDCGYQNLPNGQIRRALVFFAQQNQWDLSNYDTFDMKALGEDSYRDLSGIGIPVAKKCKALARDSLSLLAYVK [P0AA95],3.21 ± 0.054 h,3.39 ± 0.072 h,6.81 h,2.74 h,3.47 ± 0.12 h,–,3.61 ± 0.71 h,4.74 h,3.1 ± 0.091 h,5.56 ± 1.2 h,3.21 ± 0.85 h,5.86 ± 0.72 h
MVDQVKVVADDQAPAEQSLRRNLTNRHIQLIAIGGAIGTGLFMGSGKTISLAGPSIIFVYMIIGFMLFFVMRAMGELLLSNLEYKSFSDFASDLLGPWAGYFTGWTYWFCWVVTGMADVVAITAYAQFWFPDLSDWVASLAVIVLLLTLNLATVKMFGEMEFWFAMIKIVAIVSLIVVGLVMVAMHFQSPTGVEASFAHLWNDGGWFPKGLSGFFAGFQIAVFAFVGIELVGTTAAETKDPEKSLPRAINSIPIRIIMFYVFALIVIMSVTPWSSVVPEKSPFVELFVLVGLPAAASVINFVVLTSAASSANSGVFSTSRMLFGLAQEGVAPKAFAKLSKRAVPAKGLTFSCICLLGGVVMLYVNPSVIGAFTMITTVSAILFMFVWTIILCSYLVYRKQRPHLHEKSIYKMPLGKLMCWVCMAFFVFVVVLLTLEDDTRQALLVTPLWFIALGLGWLFIGKKRAAELRK [P0AAE0],4.28 ± 0.25 h,3.4 ± 0.0052 h,3.26 ± 0.38 h,2.95 ± 0.22 h,3.33 ± 0.25 h,3.28 ± 0.5 h,–,8.36 ± 0.32 h,3.26 ± 0.58 h,5 ± 0.22 h,4.74 ± 0.37 h,6.57 ± 0.66 h
MQQKMIQFSGDVSLPAVGQGTWYMGEDASQRKTEVAALRAGIELGLTLIDTAEMYADGGAEKVVGEALTGLREKVFLVSKVYPWNAGGQKAINACEASLRRLNTDYLDLYLLHWSGSFAFEETVAAMEKLIAQGKIRRWGVSNLDYADMQELWQLPGGNQCATNQVLYHLGSRGIEYDLLPWCQQQQMPVMAYSPLAQAGRLRNGLLKNAVVNEIAHAHNISAAQVLLAWVISHQGVMAIPKAATIAHVQQNAAVLEVELSSAELAMLDKAYPAPKGKTALDMV,> 8 h,–,–,–,–,2.9 ± 0.38 h,5.61 ± 0.92 h,8.61 ± 1.4 h,–,–,5.03 ± 0.38 h,9.97 ± 0.73 h
MSDQFDAKAFLKTVTSQPGVYRMYDAGGTVIYVGKAKDLKKRLSSYFRSNLASRKTEALVAQIQQIDVTVTHTETEALLLEHNYIKLYQPRYNVLLRDDKSYPFIFLSGDTHPRLAMHRGAKHAKGEYFGPFPNGYAVRETLALLQKIFPIRQCENSVYRNRSRPCLQYQIGRCLGPCVEGLVSEEEYAQQVEYVRLFLSGKDDQVLTQLISRMETASQNLEFEEAARIRDQIQAVRRVTEKQFVSNTGDDLDVIGVAFDAGMACVHVLFIRQGKVLGSRSYFPKVPGGTELSEVVETFVGQFYLQGSQMRTLPGEILLDFNLSDKTLLADSLSELAGRKINVQTKPRGDRARYLKLARTNAATALTSKLSQQSTVHQRLTALASVLKLPEVKRMECFDISHTMGEQTVASCVVFDANGPLRAEYRRYNITGITPGDDYAAMNQVLRRRYGKAIDDSKIPDVILIDGGKGQLAQAKNVFAELDVSWDKNHPLLLGVAKGADRKAGLETLFFEPEGEGFSLPPDSPALHVIQHIRDESHDHAIGGHRKKRAKVKNTSSLETIEGVGPKRRQMLLKYMGGLQGLRNASVEEIAKVPGISQGLAEKIFWSLKH [P0A8G0],6.54 ± 0.81 h,5.14 ± 0.15 h,4.77 ± 0.12 h,6.421 ± 0.061 h,4.75 ± 0.15 h,2.84 ± 0.067 h,5.1 ± 0.39 h,7.83 ± 0.25 h,4.84 ± 0.28 h,8.62 ± 0.12 h,4.61 ± 0.15 h,8.48 ± 0.19 h
MLDIDKSTVDFLVTENMVQEVEKVLSHDVPLVHAIVEEMVKRDIDRIYFVACGSPLNAAQTAKHLADRFSDLQVYAISGWEFCDNTPYRLDDRCAVIGVSDYGKTEEVIKALELGRACGALTAAFTKRADSPITSAAEFSIDYQADCIWEIHLLLCYSVVLEMITRLAPNAEIGKIKNDLKQLPNALGHLVRTWEEKGRQLGELASQWPMIYTVAAGPLRPLGYKEGIVTLMEFTWTHGCVIESGEFRHGPLEIVEPGVPFLFLLGNDESRHTTERAINFVKQRTDNVIVIDYAEISQGLHPWLAPFLMFVPMEWLCYYLSIYKDHNPDERRYYGGLVEY [P0AC00],–,–,–,–,–,–,2.37 ± 0.41 h,2.71 h,–,–,–,–
MSKARRWVIIVLSLAVLVMIGINMAEKDDTAQVVVNNNDPTYKSEHTDTLVYNPEGALSYRLIAQHVEYYSDQAVSWFTQPVLTTFDKDKIPTWSVKADKAKLTNDRMLYLYGHVEVNALVPDSQLRRITTDNAQINLVTQDVTSEDLVTLYGTTFNSSGLKMRGNLRSKNAELIEKVRTSYEIQNKQTQP [P0ADV9],5.91 ± 0.18 h,5.86 ± 0.15 h,5.92 ± 0.41 h,5.82 ± 0.13 h,6.78 ± 0.24 h,–,5.98 ± 0.17 h,11.2 ± 1.9 h,5.55 ± 0.17 h,11.1 ± 0.99 h,5.85 ± 0.087 h,11.98 ± 0.014 h
MNKDEAGGNWKQFKGKVKEQWGKLTDDDMTIIEGKRDQLVGKIQERYGYQKDQAEKEVVDWETRNEYRW,6.99 ± 1.3 h,4.33 ± 0.086 h,4.42 h,6.177 ± 0.038 h,3.64 ± 0.25 h,–,–,11 ± 3.5 h,3.59 ± 0.14 h,6.53 ± 1.5 h,3.72 ± 0.58 h,6.92 ± 0.27 h
